The target of data set [1] is phosphorylated BES1 (pBES1), BES1 with a His-tag phosphorylated by BIN2 (UniProt Q9LN63). Description: CoSMoS (colocalization single-molecule spectroscopy, TIRFM); His-tagged pBES1 immobilised on the slide; binding percentage of 14-3-3κ with pBES1 before and after incubation for 1 h with pBKI1C at >1,000 times the concentration of pBES1.
In data set [2] the target is 14-3-3κ as used in the CoSMoS competition experiment (UniProt P48348). Described as above.
Data set [3] concerns the molecule itself. Description: single-molecule TIRF microscopy, stepwise photobleaching; His-tagged BES1 phosphorylated by BIN2 (30 min, 37°C) immobilised on the slide; 14-3-3κ/C103S-alexa555 added; bleaching steps counted in 188 trajectories; labeling efficiency 34.7%.

Chain of phosphorylated BES1 (pBES1), BES1 with a His-tag phosphorylated by BIN2 (Q9LN63 whole entry): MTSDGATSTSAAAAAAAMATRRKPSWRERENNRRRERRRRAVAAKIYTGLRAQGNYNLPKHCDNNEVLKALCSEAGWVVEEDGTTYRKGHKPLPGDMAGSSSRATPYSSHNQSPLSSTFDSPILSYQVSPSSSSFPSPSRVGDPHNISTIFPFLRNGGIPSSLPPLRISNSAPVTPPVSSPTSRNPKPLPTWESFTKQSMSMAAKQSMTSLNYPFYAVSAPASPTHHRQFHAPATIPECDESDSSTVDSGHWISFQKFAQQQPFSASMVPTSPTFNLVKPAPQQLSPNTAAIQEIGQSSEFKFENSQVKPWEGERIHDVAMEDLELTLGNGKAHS

On to “14-3-3κ as used in the CoSMoS competition experiment (from UniProt P48348 1-248)”, for which, in data set [1], the binding percentage of 14-3-3κ with pBES1 before pBKI1C was found to be 18%. In data set [2], “phosphorylated BKI1 C terminal (pBKI1C), BKI1C phosphorylated by JKC (domain or fragment)” displayed a binding percentage of 14-3-3κ with pBES1 left after pBKI1C (>1,000 times the concentration of pBES1, 1 h) of 9%.

B1: alexa555-labeled 14-3-3κ/C103S (natural protein, UniProt P48348 1-248, looked up)
chain: MATTLSRDQYVYMAKLAEQAERYEEMVQFMEQLVSGATPAGELTVEERNLLSVAYKNVIGSLRAAWRIVSSIEQKEESRKNEEHVSLVKDYRSKVETELSSISSGILRLLDSHLIPSATASESKVFYLKMKGDYHRYLAEFKSGDERKTAAEDTMIAYKAAQDVAVADLAPTHPIRLGLALNFSVFYYEILNSSEKACSMAKQAFEEAIAELDTLGEESYKDSTLIMQLLRDNLTLWTSDMQEQMDEA
modifications: alexa555 (maleimide derivative) on a cysteine, site not given; labeling efficiency 34.7%
notes: 14-3-3κ (14-3-3 kappa), a plant 14-3-3 protein of the brassinosteroid signaling pathway; printed molecular weight 29073.70 D; also called 14-3-3κ/C103S-alexa555; 14-3-3κ-alexa555; source: E. coli BL21 (DE3)-plysS, purified (amylose and gel filtration columns)
As a reminder, the stoichiometry N is the number of molecules, sites or subunits per partner or assembly. Turning to B1, in data set [3], the “stoichiometry N” value worked out at 2.

For the origin of these results see publication PMC5673658, “Single-Molecule Fluorescence Methods to Study Plant Hormone Signal Transduction Pathways” (Frontiers in Plant Science, 2017).
